Key:
[1] = biological target: T1, Ev1 protein (Homo sapiens, UniProt Q9UI08); experiment: Influence of Rad51B or Rad51 on catenation of single-stranded DNA by the Ev1 protein; type: biochemical
T1 construct: in accordance with the protocols used in purification of the entire-length Ev1 protein; 6xHis (N, cleaved yes); made in house; host or cells: E. coli BL21 (DE3) codon plus-RP, pET15b vector
T1 sequence (Q9UI08 1-418 isoform Q9UI08-2): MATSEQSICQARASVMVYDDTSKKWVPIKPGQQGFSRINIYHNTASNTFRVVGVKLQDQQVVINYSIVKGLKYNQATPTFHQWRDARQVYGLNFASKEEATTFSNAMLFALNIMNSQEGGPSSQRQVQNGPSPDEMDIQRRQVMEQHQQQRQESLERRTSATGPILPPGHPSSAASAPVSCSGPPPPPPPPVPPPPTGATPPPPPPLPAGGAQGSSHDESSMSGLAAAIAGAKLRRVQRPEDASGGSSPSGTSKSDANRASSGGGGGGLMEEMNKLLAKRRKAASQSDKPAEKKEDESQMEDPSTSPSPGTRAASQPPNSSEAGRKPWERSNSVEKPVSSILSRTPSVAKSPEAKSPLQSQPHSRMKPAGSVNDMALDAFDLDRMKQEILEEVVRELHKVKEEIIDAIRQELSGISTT
Procedure: Lanes 1 and 5 indicate the results of control experiments in which neither the Ev1 nor the Rad51B protein was used. Lanes 2 and 6 indicate the results of experiments that were carried out using a 4 μM Rad51B protein in the absence of the Ev1 protein. Lanes 3 and 7 indicate the results of experiments that were carried out using a 4 μM Ev1 protein in the absence of the Rad51B protein. Lanes 4 and 8 indicate the results of experiments that were carried out using a 4 μM Ev1 protein and a 4 μM Rad51B protein. Further, lanes 1-4 indicate the results of experiments that were carried out in the presence of ATP, and lanes 5-8 indicate the results of experiments that were carried out in the absence of ATP. […] Lanes 1 and 5 indicate the results of control experiments in which neither the Ev1 nor the Rad51 protein was used. Lanes 2 and 6 indicate the results of experiments that were carried out using a 4 μM Rad51 protein in the absence of the Ev1 protein. Lanes 3 and 7 indicate the results of experiments that were carried out using a 4 μM Ev1 protein in the absence of the Rad51 protein. Lanes 4 and 8 indicate the results of experiments that were carried out using a 4 μM Ev1 protein and a 4 μM Rad51 protein. Further, lanes 1-4 indicate the results of experiments that were carried out in the presence of ATP, and lanes 5-8 indicate the results of experiments that were carried out in the absence of ATP.
The Rad51B protein was mixed in a concentration of 0.5 to 8 μM with a 4 μM Ev1 protein, and the activity was then measured. Lane 1 indicates the results of a control experiment in which neither the Rad51B protein nor the Ev1 protein was added, and lane 8 indicates the results of a control experiment in which a 8 μM Rad51B protein was added and no Ev1 protein was added. Lanes 2-7 indicate the results of experiments in which the Rad51B protein was added in concentrations of 0 μM, 0.5 μM, 1.0 μM, 2.0 μM, 4.0 μM, and 8.0 μM, respectively, in the presence of 4 μM Ev1.
A φ×174 or M13 mp18 circular single-stranded DNA (20 μM) was incubated at 37° C. in 20 mM HEPES-NaOH (pH 7.5), 1 mM DTT, 1 mM MgCl2, and 0.1 mg/ml BSA. Thereafter, the sample was subjected to a deproteination treatment with 0.2% SDS and 1.3 mg/ml proteinase K. The obtained product was separated by 0.9% agarose gel electrophoresis, and a DNA band was then stained with SYBR Gold (Invitrogen).

[2] = biological target: T1, Ev1 protein; experiment: Catenation of single-stranded DNA in coexistence of DNA topoisomerase type I protein and Ev1 protein; type: biochemical; conditions: 20 μM φ×174 single-stranded DNA; 37° C., 1 hour; E. coli TopoI 0.05-5 U or 2.8 nM hsTopoI
Procedure: A 20 μM φ×174 single-stranded DNA, a 4 μM Ev1 protein, and a DNA topoisomerase type I protein in each concentration or unit number (derived from Escherichia coli or a human) were added to 10 μl of a reaction solution (20 mM HEPES, 1 mM DTT, 100 μg/ml BSA, and 1 mM MgCl2). The obtained mixture was reacted at 37° C. for 1 hour. Thereafter, the sample was subjected to a deproteination treatment using 0.2% SDS and 1.3 mg/ml proteinase K. The obtained product was separated by 0.9% agarose gel electrophoresis, and a DNA band was then stained with SYBR Gold (Invitrogen) (FIG. 13).

B1: Rad51 protein: Rad51 protein showing sequence similarity to Rad51B (protein, UniProt Q06609 2-339, looked up)
DNA repair protein RAD51 …: AMQMQLEANADTSVEEESFGPQPISRLEQCGINANDVKKLEEAGFHTVEAVAYAPKKELINIKGISEAKADKILAEAAKLVPMGFTTATEFHQRRSEIIQITTGSKELDKLLQGGIETGSITEMFGEFRTGKTQICHTLAVTCQLPIDRGGGEGKAMYIDTEGTFRPERLLAVAERYGLSGSDVLDNVAYARAFNTDHQTQLLYQASAMMVESRYALLIVDSATALYRTDYSGRGELSARQMHLARFLRMLLRLADEFGVAVVITNQVVAQVDGAAMFAADPKKPIGGNIIAHASTTRLYLRKGRGETRICKIYDSPCLPEAEAMFAINADGVGDAKD
- effect on catenation of DNA molecules by the Ev1 protein ([1]; 4 μM Rad51, 4 μM Ev1 protein, regardless of presence or absence of ATP): inhibited the catenation of DNA molecules by the Ev1 protein

B2: DNA topoisomerase type I protein derived from Escherichia coli: TopoI (E. coli, New England Biolabs) (protein, UniProt P06612 1-865, looked up)
DNA topoisomerase 1: MGKALVIVESPAKAKTINKYLGSDYVVKSSVGHIRDLPTSGSAAKKSADSTSTKTAKKPKKDERGALVNRMGVDPWHNWEAHYEVLPGKEKVVSELKQLAEKADHIYLATDLDREGEAIAWHLREVIGGDDARYSRVVFNEITKNAIRQAFNKPGELNIDRVNAQQARRFMDRVVGYMVSPLLWKKIARGLSAGRVQSVAVRLVVEREREIKAFVPEEFWEVDASTTTPSGEALALQVTHQNDKPFRPVNKEQTQAAVSLLEKARYSVLEREDKPTTSKPGAPFITSTLQQAASTRLGFGVKKTMMMAQRLYEAGYITYMRTDSTNLSQDAVNMVRGYISDNFGKKYLPESPNQYASKENSQEAHEAIRPSDVNVMAESLKDMEADAQKLYQLIWRQFVACQMTPAKYDSTTLTVGAGDFRLKARGRILRFDGWTKVMPALRKGDEDRILPAVNKGDALTLVELTPAQHFTKPPARFSEASLVKELEKRGIGRPSTYASIISTIQDRGYVRVENRRFYAEKMGEIVTDRLEENFRELMNYDFTAQMENSLDQVANHEAEWKAVLDHFFSDFTQQLDKAEKDPEEGGMRPNQMVLTSIDCPTCGRKMGIRTASTGVFLGCSGYALPPKERCKTTINLVPENEVLNVLEGEDAETNALRAKRRCPKCGTAMDSYLIDPKRKLHVCGNNPTCDGYEIEEGEFRIKGYDGPIVECEKCGSEMHLKMGRFGKYMACTNEECKNTRKILRNGEVAPPKEDPVPLPELPCEKSDAYFVLRDGAAGVFLAANTFPKSRETRAPLVEELYRFRDRLPEKLRYLADAPQQDPEGNKTMVRFSRKTKQQYVSSEKDGKATGWSAFYVDGKWVEGKK
- effect on catenation of single-stranded DNA molecules in coexistence with the Ev1 protein [2]: promoted

B3: Rad51B: Rad51B protein purified by the previously reported method (Yokoyama et al.) (protein)
chain: MGSKKLKRVGLSQELCDRLSRHQILTCQDFLCLSPLELMKVTGLSYRGVHELLCMVSRACAPKMQTAYGIKAQRSADFSPAFLSTTLSALDEALHGGVACGSLTEITGPPGCGKTQFCIMMSILATLPTNMGGLEGAVVYIDTESAFSAERLVEIAESRFPRYFNTEEKLLLTSSKVHLYRELTCDEVLQRIESLEEEIISKGIKLVILDSVASVVRKEFDAQLQGNLKERNKFLAREASSLKYLAEEFSIPVILTNQITTHLSGALASQADLVSPADDLSLSEGTSGSSCVIAALGNTWSHSVNTRLILQYLDSERRQILIAKSPLAPFTSFVYTIKEEGLVLQAYGNS
- effect on catenation of DNA molecules by the Ev1 protein ([1]; 4 μM Rad51B, 4 μM Ev1 protein, absence of ATP): not significant
- effect on catenation of DNA molecules by the Ev1 protein ([1]; 4 μM added protein, 4 μM Ev1 protein, presence of ATP): significantly promoted
